Assay results published in patent publication US20070014810A1, “Inducing cellular immune responses to human papillomavirus using peptide and nucleic acid compositions” (priority 2003, published 2007).

Experiments:
HLA-DRB1*0901 (human) = target: T1, HLA-DRB1*0901 (human)
T1 chain 1: not shown
T1 chain 2: not shown

HLA-A*0101 (human) = assay: inhibition of 125I-labelled probe peptide binding to purified HLA, gel filtration; standard peptide
HLA-A*2902 (human) [1] = assay: as above
HLA-A*2902 (human) [2] = assay: inhibition of 125I-labelled probe peptide binding to purified HLA, gel filtration; standard peptide (allele listed again under supertype A24)
HLA-A*3002 (human) [3] = assay: inhibition of 125I-labelled probe peptide binding to purified HLA, gel filtration; standard peptide
HLA-A*3002 (human) [4] = assay: inhibition of 125I-labelled probe peptide binding to purified HLA, gel filtration; standard peptide (allele listed again under supertype A24)

## AKFVAAWTLKAAA (modifications not checked)
HLA-DRB1*0901 (human)
  IC50: 75 nM

## YTAVVPLVY (modifications not checked)
HLA-A*0101 (human)
  IC50: 5 nM
HLA-A*2902 (human) [1]
  IC50: 5 nM
HLA-A*2902 (human) [2]
  IC50: 5 nM

## RISGVDRYY (modifications not checked)
HLA-A*3002 (human) [3]
  IC50: 3 nM
HLA-A*3002 (human) [4]
  IC50: 3 nM
